# In paper PMC11864811, “Human CST Stimulates Base Excision Repair to Prevent the Accumulation of Oxidative DNA Damage” (Journal of molecular biology, 2024):
# B1: FLAG-TEN1 (natural protein)
# chain: MMLPKPGTYYLPWEVSAGQVPDGSTLRTFGRLCLYDMIQSRVTLMAQHGSDQHQVLVCTKLVEPFHAQVGSLYIVLGELQHQQDRGSVVKARVLTCVEGMNLPLLEQAIREQRLYKQERGGSQ
# B2: FLAG-CTC1 (natural protein, human, UniProt Q2NKJ3 1-1217, looked up)
# chain: MAAGRAQVPSSEQAWLEDAQVFIQKTLCPAVKEPNVQLTPLVIDCVKTVWLSQGRNQGSTLPLSYSFVSVQDLKTHQRLPCCSHLSWSSSAYQAWAQEAGPNGNPLPREQLLLLGTLTDLSADLEQECRNGSLYVRDNTGVLSCELIDLDLSWLGHLFLFPRWSYLPPARWNSSGEGHLELWDAPVPVFPLTISPGPVTPIPVLYPESASCLLRLRNKLRGVQRNLAGSLVRLSALVKSKQKAYFILSLGRSHPAVTHVSIIVQVPAQLVWHRALRPGTAYVLTELRVSKIRGQRQHVWMTSQSSRLLLLKPECVQELELELEGPLLEADPKPLPMPSNSEDKKDPESLVRYSRLLSYSGAVTGVLNEPAGLYELDGQLGLCLAYQQFRGLRRVMRPGVCLQLQDVHLLQSVGGGTRRPVLAPCLRGAVLLQSFSRQKPGAHSSRQAYGASLYEQLVWERQLGLPLYLWATKALEELACKLCPHVLRHHQFLQHSSPGSPSLGLQLLAPTLDLLAPPGSPVRNAHNEILEEPHHCPLQKYTRLQTPSSFPTLATLKEEGQRKAWASFDPKALLPLPEASYLPSCQLNRRLAWSWLCLLPSAFCPAQVLLGVLVASSHKGCLQLRDQSGSLPCLLLAKHSQPLSDPRLIGCLVRAERFQLIVERDVRSSFPSWKELSMPGFIQKQQARVYVQFFLADALILPVPRPCLHSATPSTPQTDPTGPEGPHLGQSRLFLLCHKEALMKRNFCVPPGASPEVPKPALSFYVLGSWLGGTQRKEGTGWGLPEPQGNDDNDQKVHLIFFGSSVRWFEFLHPGQVYRLIAPGPATPMLFEKDGSSCISRRPLELAGCASCLTVQDNWTLELESSQDIQDVLDANKSLPESSLTDLLSDNFTDSLVSFSAEILSRTLCEPLVASLWMKLGNTGAMRRCVKLTVALETAECEFPPHLDVYIEDPHLPPSLGLLPGARVHFSQLEKRVSRSHNVYCCFRSSTYVQVLSFPPETTISIPLPHIYLAELLQGGQSPFQATASCHIVSVFSLQLFWVCAYCTSICRQGKCTRLGSTCPTQTAISQAIIRLLVEDGTAEAVVTCRNHHVAAALGLCPREWASLLDFVQVPGRVVLQFAGPGAQLESSARVDEPMTMFLWTLCTSPSVLRPIVLSFELERKPSKIVPLEPPRLQRFQCGELPFLTHVNPRLRLSCLSIRESEYSSSLGILASSC
# B3: Human CST complex (CTC1-STN1-TEN1) (complex)
# chain 1: MAAGRAQVPSSEQAWLEDAQVFIQKTLCPAVKEPNVQLTPLVIDCVKTVWLSQGRNQGSTLPLSYSFVSVQDLKTHQRLPCCSHLSWSSSAYQAWAQEAGPNGNPLPREQLLLLGTLTDLSADLEQECRNGSLYVRDNTGVLSCELIDLDLSWLGHLFLFPRWSYLPPARWNSSGEGHLELWDAPVPVFPLTISPGPVTPIPVLYPESASCLLRLRNKLRGVQRNLAGSLVRLSALVKSKQKAYFILSLGRSHPAVTHVSIIVQVPAQLVWHRALRPGTAYVLTELRVSKIRGQRQHVWMTSQSSRLLLLKPECVQELELELEGPLLEADPKPLPMPSNSEDKKDPESLVRYSRLLSYSGAVTGVLNEPAGLYELDGQLGLCLAYQQFRGLRRVMRPGVCLQLQDVHLLQSVGGGTRRPVLAPCLRGAVLLQSFSRQKPGAHSSRQAYGASLYEQLVWERQLGLPLYLWATKALEELACKLCPHVLRHHQFLQHSSPGSPSLGLQLLAPTLDLLAPPGSPVRNAHNEILEEPHHCPLQKYTRLQTPSSFPTLATLKEEGQRKAWASFDPKALLPLPEASYLPSCQLNRRLAWSWLCLLPSAFCPAQVLLGVLVASSHKGCLQLRDQSGSLPCLLLAKHSQPLSDPRLIGCLVRAERFQLIVERDVRSSFPSWKELSMPGFIQKQQARVYVQFFLADALILPVPRPCLHSATPSTPQTDPTGPEGPHLGQSRLFLLCHKEALMKRNFCVPPGASPEVPKPALSFYVLGSWLGGTQRKEGTGWGLPEPQGNDDNDQKVHLIFFGSSVRWFEFLHPGQVYRLIAPGPATPMLFEKDGSSCISRRPLELAGCASCLTVQDNWTLELESSQDIQDVLDANKSLPESSLTDLLSDNFTDSLVSFSAEILSRTLCEPLVASLWMKLGNTGAMRRCVKLTVALETAECEFPPHLDVYIEDPHLPPSLGLLPGARVHFSQLEKRVSRSHNVYCCFRSSTYVQVLSFPPETTISIPLPHIYLAELLQGGQSPFQATASCHIVSVFSLQLFWVCAYCTSICRQGKCTRLGSTCPTQTAISQAIIRLLVEDGTAEAVVTCRNHHVAAALGLCPREWASLLDFVQVPGRVVLQFAGPGAQLESSARVDEPMTMFLWTLCTSPSVLRPIVLSFELERKPSKIVPLEPPRLQRFQCGELPFLTHVNPRLRLSCLSIRESEYSSSLGILASSC
# chain 2: MQPGSSRCEEETPSLLWGLDPVFLAFAKLYIRDILDMKESRQVPGVFLYNGHPIKQVDVLGTVIGVRERDAFYSYGVDDSTGVINCICWKKLNTESVSAAPSAARELSLTSQLKKLQETIEQKTKIEIGDTIRVRGSIRTYREEREIHATTYYKVDDPVWNIQIARMLELPTIYRKVYDQPFHSSALEKEEALSNPGALDLPSLTSLLSEKAKEFLMENRVQSFYQQELEMVESLLSLANQPVIHSASSDQVNFKKDTTSKAIHSIFKNAIQLLQEKGLVFQKDDGFDNLYYVTREDKDLHRKIHRIIQQDCQKPNHMEKGCHFLHILACARLSIRPGLSEAVLQQVLELLEDQSDIVSTMEHYYTAF
# chain 3: MMLPKPGTYYLPWEVSAGQVPDGSTLRTFGRLCLYDMIQSRVTLMAQHGSDQHQVLVCTKLVEPFHAQVGSLYIVLGELQHQQDRGSVVKARVLTCVEGMNLPLLEQAIREQRLYKQERGGSQ
# B4: Myc-STN1 (natural protein, human, UniProt Q9H668 1-368, looked up)
# chain: MQPGSSRCEEETPSLLWGLDPVFLAFAKLYIRDILDMKESRQVPGVFLYNGHPIKQVDVLGTVIGVRERDAFYSYGVDDSTGVINCICWKKLNTESVSAAPSAARELSLTSQLKKLQETIEQKTKIEIGDTIRVRGSIRTYREEREIHATTYYKVDDPVWNIQIARMLELPTIYRKVYDQPFHSSALEKEEALSNPGALDLPSLTSLLSEKAKEFLMENRVQSFYQQELEMVESLLSLANQPVIHSASSDQVNFKKDTTSKAIHSIFKNAIQLLQEKGLVFQKDDGFDNLYYVTREDKDLHRKIHRIIQQDCQKPNHMEKGCHFLHILACARLSIRPGLSEAVLQQVLELLEDQSDIVSTMEHYYTAF
# Tests used:
# [1] = target: Recombinant human Pol β (6X-His tagged) (human, UniProt P06746 1-335); experiment: cell-based or functional assay
# [2] = target: Recombinant human OGG1 (6X-His tagged) (human, UniProt O15527 1-345); experiment: cell-based or functional assay
# Sequence of Recombinant human OGG1 (6X-His tagged) (O15527 whole entry): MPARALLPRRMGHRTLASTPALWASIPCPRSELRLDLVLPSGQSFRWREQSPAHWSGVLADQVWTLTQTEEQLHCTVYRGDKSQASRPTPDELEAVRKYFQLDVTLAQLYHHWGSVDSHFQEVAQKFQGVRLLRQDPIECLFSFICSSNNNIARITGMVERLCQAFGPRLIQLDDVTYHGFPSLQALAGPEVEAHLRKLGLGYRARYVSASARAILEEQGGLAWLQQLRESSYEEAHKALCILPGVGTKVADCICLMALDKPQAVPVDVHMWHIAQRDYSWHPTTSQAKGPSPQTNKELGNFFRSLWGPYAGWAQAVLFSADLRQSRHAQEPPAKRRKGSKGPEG
binder,measurement,setting,value
B1,"Pol β DNA synthesis on a random sequence 66 nt gapped substrate, fold increase with purified TEN1",[1],~3 fold
same,"Pol β dRP lyase activity, fold increase with purified TEN1 (250-1500 nM; value at the highest concentration)",[1],1.5 fold
B2,"OGG1 lesion removal and phosphodiester cleavage on an 8-oxo-G substrate, fold increase with purified CTC1 (250-1500 nM; value at the highest concentration)",[2],3.1 fold
same,"Pol β DNA synthesis on a random sequence 66 nt gapped substrate, fold increase with purified CTC1",[1],~7 fold
same,"Pol β dRP lyase activity, fold increase with purified CTC1 (250-1500 nM; value at the highest concentration)",[1],~7.5 fold
same,"Pol β strand displacement synthesis on a 6-nt gapped substrate, fold increase with purified CTC1",[1],3 fold
B3,"Pol β DNA synthesis on a random sequence 66 nt gapped substrate, fold increase with the CST complex",[1],~3 fold
same,"Pol β dRP lyase activity, fold increase with the CST complex (7.5-45 nM; value at the highest concentration)",[1],~10 fold
B4,"OGG1 lesion removal and phosphodiester cleavage on an 8-oxo-G substrate, fold increase with purified STN1 (250-1500 nM; value at the highest concentration)",[2],4.3 fold
same,"Pol β DNA synthesis on a random sequence 66 nt gapped substrate, fold increase with purified STN1",[1],~7 fold
same,"Pol β dRP lyase activity, fold increase with purified STN1 (250-1500 nM; value at the highest concentration)",[1],8 fold
same,"Pol β strand displacement synthesis on a 6-nt gapped substrate, fold increase with purified STN1",[1],3 fold
